From the RNAGym collection of RNA variant scans (doi:10.7554/elife.80360)

B1: CPEB3 Ribozyme (parent)
chain: GGGGGCCACAGCAGAAGCGUUCACGUCGCGGCCCCUGUCAGAUUCUGGUGAAUCUGCGAAUUCUGCUGU

Variants of: B1
Experiment: self-cleavage, relative activity (ratio to wild type); higher = more cleavage; co-transcriptional

In order of falling self-cleavage:
1. U38C U69G  1.05
2. U38A U69C  1.03
3. U38C A59G  1.01
4. U38G C39G  1.01
5. C39A U69C  1.01
6. U38C G48U  1
7. C39G U69G  1
8. C39G U49G  0.994
9. C39U G68A  0.99
10. C39G G68U  0.988
11. U38C G48C  0.986
12. C39U G47U  0.973
13. U38A U69G  0.971
14. C39G U69A  0.967
15. C39G U67G  0.965
16. C39G G50A  0.962
17. U38C  0.961
18. C39G G50U  0.957
19. U38C U49A  0.955
20. U38A U46C  0.954
21. U38A G50A  0.952
22. U38C G50U  0.952
23. C39U G47A  0.948
24. U38C C66U  0.947
25. C39G A59G  0.947
26. C39A G47C  0.945
27. C39G G48C  0.945
28. U38A U67C  0.943
29. U38A U46A  0.941
30. C39U G48C  0.939
31. U38C G47C  0.938
32. U38C A51U  0.935
33. C39U U46A  0.934
34. C39G G58C  0.929
35. C39A U49G  0.928
36. C39G U67A  0.927
37. C39U U49C  0.927
38. U38C U67G  0.925
39. C39A G68A  0.925
40. C39A U46A  0.925
41. U38A G68A  0.922
42. C39U G56U  0.922
43. U38A G58C  0.921
44. U38C U46G  0.921
45. U38C C45G  0.92
46. C39A G48C  0.912
47. C39A A59G  0.911
48. C39U G50A  0.91
49. U38C A52G  0.909
50. C39A U69A  0.908
51. C39A G58C  0.907
52. C39A G48U  0.903
53. C39G U46C  0.903
54. U38C A52U  0.895
55. C39U A51G  0.892
56. U38C U53A  0.883
57. U38A G56U  0.875
58. U38C U43G  0.866
59. U38A U53A  0.864
60. C39G U55G  0.863
61. U38A U64G  0.858
62. U38C U44G  0.851
63. C39A U55A  0.825
64. C39G A40G  0.812
65. C39A U49C  0.811
66. U38A U44C  0.802
67. U38A U64A  0.799
68. U38A G41U  0.795
69. U38C U62A  0.791
70. U38A U43A  0.784
71. U38C U64A  0.772
72. U38C U53C  0.763
73. U38C U61A  0.759
74. U38C U61G  0.759
75. C39U C45A  0.759
76. C39G U43C  0.75
77. U38A U62G  0.742
78. C39U C45G  0.74
79. C39U A51C  0.737
80. C39U A42U  0.736
81. U38A G65A  0.733
82. C39A A51U  0.728
83. U38C C63A  0.71
84. U38A U53G  0.706
85. U38C G41U  0.705
86. U38C C63G  0.693
87. C39G U55C  0.693
88. C39U U44G  0.693
89. U38C U53G  0.682
90. C39A C45G  0.659
91. C39G U64A  0.636
92. C39U A40U  0.624
93. U38C C54A  0.61
94. C39A U64G  0.61
95. C39A U61A  0.601
96. C39A U62C  0.595
97. C39U U53A  0.582
98. C39U C66G  0.579
99. C39A A42U  0.551
100. C39A C66G  0.535
101. C39G C66A  0.531
102. C39U A59U  0.527
103. C39U U44C  0.514
104. C39G C63G  0.513
105. C39U U43A  0.49
106. C39G G41A  0.486
107. C39A U64A  0.467
108. U38A G56C  0.466
109. C39A A59U  0.446
110. C39U A59C  0.445
111. C39U G41C  0.445
112. C39G G65U  0.442
113. C39U G65C  0.438
114. U38G U61G  0.436
115. C39A U62G  0.428
116. U38C C57U  0.409
117. C39U U43G  0.405
118. C39U C57G  0.403
119. C39A G41C  0.396
120. C39G U61C  0.394
121. C39A G41A  0.383
122. C39G C57G  0.361
123. C39U C57A  0.34
124. C39A C57A  0.337
125. U38C A60U  0.331
126. C39G C57U  0.327
127. U38G C39U  0.322
128. U38G U46G  0.308
129. U38C A59C  0.306
130. C39G C57A  0.303
131. U38G C54G  0.302
132. U38C C57A  0.3
133. C39G G65C  0.297
134. U38G A51U  0.295
135. C39A U43G  0.295
136. U38G G58U  0.294
137. U38G U62A  0.291
138. U38G C54U  0.29
139. U38G U61C  0.289
140. U38G U53A  0.287
141. U38G G68U  0.273
142. U38G C45G  0.27
143. U38G U61A  0.267
144. U38G A51G  0.258
145. U38G A40G  0.257
146. U38G U53G  0.255
147. U38G G41A  0.245
148. U38C U55G  0.242
149. U38G  0.242
150. U38G U53C  0.24
151. U38G G41U  0.238
152. U38G C63U  0.229
153. U38G A59U  0.228
154. U38G C63G  0.224
155. U38G G48A  0.21
156. U38G G50A  0.204
157. U38G G47C  0.201
158. U38G U62G  0.183
159. U38G A40U  0.179
160. U38G G68C  0.175
161. U38G A40C  0.17
162. U38G G50C  0.161
163. U38G G65C  0.161
164. U38G A52U  0.156
165. U38G U44A  0.149
166. U38G A60C  0.137
167. U38G C57G  0.121
